Patent publication US20180311371A1 (Hoffmann-La Roche, published 2018)
Like-named read-outs stand apart in the source and are kept apart here.

T1: huTPBG (recombinant human TPBG immobilised on the Biacore chip) (human, UniProt Q13641 32-355, limits assumed)
T1 construct: also called human TPBG antigen
T1 sequence: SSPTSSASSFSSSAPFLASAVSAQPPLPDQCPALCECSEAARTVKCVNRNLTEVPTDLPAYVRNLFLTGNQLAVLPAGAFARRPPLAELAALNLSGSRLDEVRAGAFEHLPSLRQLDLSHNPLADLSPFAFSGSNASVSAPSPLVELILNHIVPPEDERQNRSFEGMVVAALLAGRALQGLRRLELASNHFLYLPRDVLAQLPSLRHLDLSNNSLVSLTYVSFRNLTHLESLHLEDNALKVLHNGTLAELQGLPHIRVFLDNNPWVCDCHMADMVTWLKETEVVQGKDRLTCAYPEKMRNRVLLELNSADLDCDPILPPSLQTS

T2: human TPBG (trophoblast glycoprotein), full length, cell surface expressed (human, UniProt Q13641 32-420)
T2 sequence: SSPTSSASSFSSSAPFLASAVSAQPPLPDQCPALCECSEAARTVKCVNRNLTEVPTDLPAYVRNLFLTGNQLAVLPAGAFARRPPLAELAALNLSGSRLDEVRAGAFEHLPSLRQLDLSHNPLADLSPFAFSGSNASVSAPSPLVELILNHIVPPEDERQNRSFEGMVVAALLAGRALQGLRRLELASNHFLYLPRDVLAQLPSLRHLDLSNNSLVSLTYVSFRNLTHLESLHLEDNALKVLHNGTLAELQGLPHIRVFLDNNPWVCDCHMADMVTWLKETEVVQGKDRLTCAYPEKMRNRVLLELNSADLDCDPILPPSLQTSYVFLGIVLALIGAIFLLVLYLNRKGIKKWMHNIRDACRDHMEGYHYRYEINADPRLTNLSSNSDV

T3: minipig TPBG, full length, cell surface expressed on CHO-K1 cells (minipig)
T3 chain: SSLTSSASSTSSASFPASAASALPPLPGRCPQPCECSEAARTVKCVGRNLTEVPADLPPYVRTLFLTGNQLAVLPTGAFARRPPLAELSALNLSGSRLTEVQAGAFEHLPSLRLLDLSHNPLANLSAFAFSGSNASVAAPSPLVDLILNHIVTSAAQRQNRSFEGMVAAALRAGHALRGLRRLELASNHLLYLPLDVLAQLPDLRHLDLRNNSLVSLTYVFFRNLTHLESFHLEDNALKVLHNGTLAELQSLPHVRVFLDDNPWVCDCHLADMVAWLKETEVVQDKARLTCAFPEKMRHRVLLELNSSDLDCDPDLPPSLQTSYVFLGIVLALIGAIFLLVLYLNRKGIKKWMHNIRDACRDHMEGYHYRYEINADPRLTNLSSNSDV


Columns and labels:
[1] = molecular target: T1, huTPBG (recombinant human TPBG …); experiment: SPR Biacore T200; huTPBG amine-coupled, Fab-PE injected; pH 7.4
[2] = molecular target: T2, human TPBG (trophoblast glycoprotein), …; experiment: cell-based or functional assay
[3] = molecular target: T1, huTPBG (recombinant human TPBG …); experiment: SPR Biacore T200; huTPBG amine-coupled, Fab-PE injected; pH 5.5
[4] = molecular target: T3, minipig TPBG, full length, cell surface …; experiment: cell-based or functional assay
[5] = molecular target: T2, human TPBG (trophoblast glycoprotein), …; experiment: cell-based or functional assay; remark: listed apart in the source
[6] = molecular target: T2, human TPBG (trophoblast glycoprotein), …
[7] = molecular target: T2, human TPBG (trophoblast glycoprotein), …; experiment: flow cytometry on CHO-K1 stably expressing human TPBG; Fab-PE fusion
[8] = molecular target: T2, human TPBG (trophoblast glycoprotein), …; experiment: cell-based or functional assay; remark: listed apart in the source
[9] = molecular target: T2, human TPBG (trophoblast glycoprotein), …; experiment: cell-based or functional assay; remark: listed apart in the source
[10] = molecular target: T3, minipig TPBG, full length, cell surface …; experiment: flow cytometry on CHO-K1 stably expressing minipig TPBG; Fab-PE fusion
[11] = molecular target: T2, human TPBG (trophoblast glycoprotein), …; experiment: cell-based or functional assay; remark: listed apart in the source

Binder | Kd [1] | koff [1] | kon [1] | EC50 proliferation, H1975, 10 min exposure [2] | EC50 proliferation, H1975, 30 min exposure [2] | EC50 proliferation, H1975, 60 min exposure [2] | EC50 proliferation, H1975, continuous exposure [2] | Kd [3] | koff [3] | kon [3] | EC50 cytotoxicity, Fab-PE fusion, stable CHO-K1 pgTPBG [4] | X-fold lower potency pgTPBG versus huTPBG [4] | EC50 cytotoxicity, Fab-PE fusion, stable CHO-K1 huTPBG [5] | EC50 [6] | EC50 [7] | EC50 cytotoxicity, Fab-PE fusion, H1975, replicate 1 [8] | EC50 cytotoxicity, Fab-PE fusion, H1975, replicate 2 [8] | X-fold higher potency than Fab-PE fusion protein of H8, H1975, 10 min [9] | X-fold higher potency than Fab-PE fusion protein of H8, H1975, 30 min [9] | X-fold higher potency than Fab-PE fusion protein of H8, H1975, 60 min [9] | further results
anti-TPBG 051 Fab-PE fusion protein (refolded from E. coli inclusion bodies) (Fab, also called Fab-PE comprising antibody 051) heavy: MEVQLLESGGGLLQPGGSLRLSCAASGFTFSIYWMTWVRQAPGKGLEWVSAISGSGGSTYYADSVKGRFTISRDNSKNTLYLQMNSLRAEDTAVYYCAKDYYSNVYWGQGTLVTVSSASTKGPSVFPLAPSSKSTSGGTAALGCLVKDYFPEPVTVSWNSGALTSGVHTFPAVLQSSGLYSLSSVVTVPSSSLGTQTYICNVNHKPSNTKVDKKVEPKSCDKTHKASGGRHRQPRGWEQLGGGGGSPTGAEFLGDGGDVSFSTRGTQNWTVERLLQAHAQLEERGYVFVGYHGTFLEAAQSIVFGGVAARSQDLAAIWAGFYIAGDPALAYGYAQDQEPDAAGRIRNGALLRVYVPASSLPGFYRTSLTLAAPEAAGEVERLIGHPLPLALDAITGPEEEGGRLETILGWPLAERTVVIPSAIPTDPRNVGGDLDPSSIPDKEQAISALPDYASQPGKPPREDLK light: MDIQMTQSPSSVSASVGDRVTITCRASQGIYSWLAWYQQKPGKAPKLLIYAASSLQSGVPSRFSGSGSGTDFTLTISSLQPEDFATYYCQQSDSPPYTFGQGTKLEIKRTVAAPSVFIFPPSDEQLKSGTASVVCLLNNFYPREAKVQWKVDNALQSGNSQESVTEQDSKDSTYSLSSTLTLSKADYEKHKVYACEVTHQGLSSPVTKSFNRGEC | 0.121 nM | 3.46e-05 s⁻¹ | 286000 M⁻¹ s⁻¹ | 0.241 nM | 0.204 nM | 0.18 nM | 0.014 nM | 0.292 nM | 0.000113 s⁻¹ | 386000 M⁻¹ s⁻¹ | 1.37 nM | 51.7 fold | 0.03 nM | 1.25 nM | 12.4 nM | 0.016 nM | 0.014 nM | 1.1 fold | 1 fold | 1 fold | X-fold higher potency than Fab-PE fusion protein of H8, H1975, continuous [9]: 1.1 fold; EC50 [10]: 16.9 nM; EC50 protein synthesis inhibition (luciferase), BxPC-3, replicate 1 [11]: 0.027 nM; EC50 protein synthesis inhibition (luciferase), BxPC-3, replicate 2 [11]: 0.015 nM
anti-TPBG 097 Fab-PE fusion protein (refolded from E. coli inclusion bodies) (Fab, also called Fab-PE comprising antibody 097) heavy: MEVQLLESGGGLAQPGGSLRLSCAASGFTFNNDAMTWVRQAPGKGLEWVSAISGSGGSTYYADSVKGRFTISRDNSKNTLYLQMNSLRAEDTAVYYCAKGGSWGDWYYYFYPMDVWGQGTTVTVSSASTKGPSVFPLAPSSKSTSGGTAALGCLVKDYFPEPVTVSWNSGALTSGVHTFPAVLQSSGLYSLSSVVTVPSSSLGTQTYICNVNHKPSNTKVDKKVEPKSCDKTHKASGGRHRQPRGWEQLGGGGGSPTGAEFLGDGGDVSFSTRGTQNWTVERLLQAHAQLEERGYVFVGYHGTFLEAAQSIVFGGVAARSQDLAAIWAGFYIAGDPALAYGYAQDQEPDAAGRIRNGALLRVYVPASSLPGFYRTSLTLAAPEAAGEVERLIGHPLPLALDAITGPEEEGGRLETILGWPLAERTVVIPSAIPTDPRNVGGDLDPSSIPDKEQAISALPDYASQPGKPPREDLK light: not shown | 1.97 nM | 0.00121 s⁻¹ | 614000 M⁻¹ s⁻¹ | 0.211 nM | 0.189 nM | 0.203 nM | 0.013 nM | 7.49 nM | 0.00605 s⁻¹ | 808000 M⁻¹ s⁻¹ | 0.14 nM | 3.4 fold | 0.04 nM | 0.64 nM | 5.6 nM | 0.013 nM | 0.013 nM | 0.9 fold | 0.9 fold | 1.1 fold | X-fold higher potency than Fab-PE fusion protein of H8, H1975, continuous [9]: 1.1 fold; EC50 [10]: 15.4 nM; EC50 protein synthesis inhibition (luciferase), BxPC-3, replicate 1 [11]: 0.022 nM; EC50 protein synthesis inhibition (luciferase), BxPC-3, replicate 2 [11]: 0.008 nM
anti-TPBG 091 Fab-PE fusion protein (refolded from E. coli inclusion bodies) (Fab, also called Fab-PE comprising antibody 091) heavy: MEVHLLESGGGLVHPGGSLRLSCAASGFTFRSDAMHWVRQAPGKGLEWVSGVSGSGGSPYYADSVKGRFTISRDDSKTTLYLQMNSLRAEDTAVYYCATGGSIAGSYYYYPMDVWGQGTTVTVSSASTKGPSVFPLAPSSKSTSGGTAALGCLVKDYFPEPVTVSWNSGALTSGVHTFPAVLQSSGLYSLSSVVTVPSSSLGTQTYICNVNHKPSNTKVDKKVEPKSCDKTHKASGGRHRQPRGWEQLGGGGGSPTGAEFLGDGGDVSFSTRGTQNWTVERLLQAHAQLEERGYVFVGYHGTFLEAAQSIVFGGVAARSQDLAAIWAGFYIAGDPALAYGYAQDQEPDAAGRIRNGALLRVYVPASSLPGFYRTSLTLAAPEAAGEVERLIGHPLPLALDAITGPEEEGGRLETILGWPLAERTVVIPSAIPTDPRNVGGDLDPSSIPDKEQAISALPDYASQPGKPPREDLK light: not shown | 0.461 nM | 0.000129 s⁻¹ | 280000 M⁻¹ s⁻¹ | 0.057 nM | 0.062 nM | 0.043 nM | 0.003 nM | 8.89 nM | 0.00201 s⁻¹ | 226000 M⁻¹ s⁻¹ | 0.15 nM | 3.3 fold | 0.05 nM | 0.89 nM | 8.5 nM | 0.005 nM | 0.003 nM | 4 fold | 3.3 fold | 4.2 fold | X-fold higher potency than Fab-PE fusion protein of H8, H1975, continuous [9]: 3.7 fold; EC50 [10]: 10.8 nM; EC50 protein synthesis inhibition (luciferase), BxPC-3, replicate 1 [11]: 0.014 nM; EC50 protein synthesis inhibition (luciferase), BxPC-3, replicate 2 [11]: 0.007 nM
